The values below are quoted from earlier work in PMC4664829.

The pKa is the pH at which an ionisable group is half protonated.

Data set [1] has as its target T1, Glu14 (UniProt position 14, GAILAEVIGTT). The data set is described as follows: kinetics. The following applies: TPP+ association with substrate-free EmrE.
Data set [2] has as its target T1, Glu14. The note with it: proton release from EmrE.

Where two headings read alike, the source gives them in different places.

With “EmrE (small multidrug resistance transporter) (Escherichia coli)”, the pKa in the data set with Glu14 [1] is 7.3; with Glu14 [2], 8.4.
